Assay results taken from publication PMC2139889.

These substances were tested against GPI-anchored urokinase receptor (uPAR) on U937 cells (human (endogenous in U937)) (UniProt Q03405) (assay: radioligand binding).
UniProt Q03405, sequence (Q03405 23-305): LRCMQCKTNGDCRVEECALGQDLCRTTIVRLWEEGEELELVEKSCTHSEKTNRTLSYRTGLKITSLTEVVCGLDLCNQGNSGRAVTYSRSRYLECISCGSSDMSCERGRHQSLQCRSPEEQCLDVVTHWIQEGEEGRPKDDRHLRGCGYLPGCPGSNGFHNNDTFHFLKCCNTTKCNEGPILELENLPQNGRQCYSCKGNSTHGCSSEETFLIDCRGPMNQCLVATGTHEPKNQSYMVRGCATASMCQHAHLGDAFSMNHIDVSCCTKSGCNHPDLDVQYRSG
“histidine-tagged wild-type pro-uPA (enzyme)” showed an IC50 of 400 pM. In the case of “histidine-tagged pro-uPA with Ser138 replaced by Glu (enzyme)”, the IC50 is reported as 400 pM. In the case of “histidine-tagged pro-uPA with Ser138 and Ser303 replaced by Glu (enzyme)”, the IC50 is reported as 400 pM. human urinary uPA (enzyme) gave an IC50 of 400 pM.
